Patent US20230190900 (published 2023)

T1: human FcγRI (CD64) (human, UniProt P12314)
T1 chain: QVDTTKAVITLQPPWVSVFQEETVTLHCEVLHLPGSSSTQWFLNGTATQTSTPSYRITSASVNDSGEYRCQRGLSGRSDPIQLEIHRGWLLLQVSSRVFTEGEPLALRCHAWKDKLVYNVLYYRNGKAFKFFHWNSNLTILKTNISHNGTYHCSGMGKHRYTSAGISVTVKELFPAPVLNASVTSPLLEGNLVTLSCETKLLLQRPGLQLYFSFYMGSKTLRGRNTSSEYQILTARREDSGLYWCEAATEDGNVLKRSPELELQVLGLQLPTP

T2: human FcγRIIIb (NA1) CD16B (human, UniProt O75015)
T2 chain: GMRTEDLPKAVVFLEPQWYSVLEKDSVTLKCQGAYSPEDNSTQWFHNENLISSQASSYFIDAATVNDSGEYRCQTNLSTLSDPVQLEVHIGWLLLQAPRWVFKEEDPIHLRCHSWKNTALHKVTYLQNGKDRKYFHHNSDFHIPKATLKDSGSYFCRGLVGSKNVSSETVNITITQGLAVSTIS

T3: murine FcγRIII (mouse, UniProt P08508)
T3 chain: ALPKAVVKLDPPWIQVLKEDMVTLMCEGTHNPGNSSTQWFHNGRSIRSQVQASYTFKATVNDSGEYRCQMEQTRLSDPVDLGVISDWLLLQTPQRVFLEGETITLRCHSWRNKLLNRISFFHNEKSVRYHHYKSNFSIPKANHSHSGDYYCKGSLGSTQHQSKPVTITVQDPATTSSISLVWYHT

T4: human FcγRIIa (CD32A) (human, UniProt P12318)
T4 chain: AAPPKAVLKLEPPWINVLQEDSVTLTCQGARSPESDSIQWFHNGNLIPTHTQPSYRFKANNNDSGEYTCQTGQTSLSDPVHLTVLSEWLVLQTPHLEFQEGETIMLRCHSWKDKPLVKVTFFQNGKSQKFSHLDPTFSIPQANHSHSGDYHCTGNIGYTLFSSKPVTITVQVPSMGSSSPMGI

T5: murine FcγRIV (CD16-2) (mouse, UniProt A0A0B4J1G0)
T5 chain: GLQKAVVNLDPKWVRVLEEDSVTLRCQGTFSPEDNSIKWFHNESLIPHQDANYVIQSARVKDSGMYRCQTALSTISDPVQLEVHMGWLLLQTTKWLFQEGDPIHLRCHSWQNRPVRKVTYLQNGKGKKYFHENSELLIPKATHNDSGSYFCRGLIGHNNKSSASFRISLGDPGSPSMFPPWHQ

T6: murine FcγRIIb (mouse, UniProt P08101)
T6 chain: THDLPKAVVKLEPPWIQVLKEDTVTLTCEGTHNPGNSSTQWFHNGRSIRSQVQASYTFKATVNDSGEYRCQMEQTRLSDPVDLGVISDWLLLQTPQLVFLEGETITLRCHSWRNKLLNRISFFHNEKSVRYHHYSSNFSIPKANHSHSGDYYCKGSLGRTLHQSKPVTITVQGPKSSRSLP

T7: cynomolgus FcγRIIa (CD32A) (cynomolgus)
T7 chain: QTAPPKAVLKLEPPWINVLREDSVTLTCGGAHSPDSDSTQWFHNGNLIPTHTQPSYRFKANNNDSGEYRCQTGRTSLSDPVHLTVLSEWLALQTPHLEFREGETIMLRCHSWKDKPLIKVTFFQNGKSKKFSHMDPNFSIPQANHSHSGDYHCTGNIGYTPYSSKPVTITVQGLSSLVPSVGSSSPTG

T8: murine FcRn (mouse, UniProt Q61559)
T8 chain 1: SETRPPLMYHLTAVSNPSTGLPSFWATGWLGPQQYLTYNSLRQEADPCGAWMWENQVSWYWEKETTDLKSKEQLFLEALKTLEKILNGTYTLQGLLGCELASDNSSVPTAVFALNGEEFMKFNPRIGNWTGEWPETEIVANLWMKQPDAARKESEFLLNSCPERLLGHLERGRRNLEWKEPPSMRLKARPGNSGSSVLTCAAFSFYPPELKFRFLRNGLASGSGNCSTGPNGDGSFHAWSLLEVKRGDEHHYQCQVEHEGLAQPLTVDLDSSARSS
T8 chain 2: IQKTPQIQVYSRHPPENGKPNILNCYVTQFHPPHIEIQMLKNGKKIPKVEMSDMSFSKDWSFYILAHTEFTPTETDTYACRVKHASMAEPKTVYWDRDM

T9: cynomolgus FcRn (cynomolgus, UniProt Q8SPV9)
T9 chain 1: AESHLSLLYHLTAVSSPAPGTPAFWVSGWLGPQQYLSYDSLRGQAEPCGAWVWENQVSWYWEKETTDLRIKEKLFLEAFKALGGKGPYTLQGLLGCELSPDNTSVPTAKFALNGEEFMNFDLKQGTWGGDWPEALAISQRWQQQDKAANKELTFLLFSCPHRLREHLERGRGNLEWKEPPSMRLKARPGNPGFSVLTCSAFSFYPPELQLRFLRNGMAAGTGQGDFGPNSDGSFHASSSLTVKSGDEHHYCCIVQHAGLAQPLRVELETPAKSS
T9 chain 2: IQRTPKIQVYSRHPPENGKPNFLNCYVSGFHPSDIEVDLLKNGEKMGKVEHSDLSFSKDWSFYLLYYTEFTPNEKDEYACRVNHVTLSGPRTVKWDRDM

T10: murine FcγRI (mouse, UniProt P26151)
T10 chain: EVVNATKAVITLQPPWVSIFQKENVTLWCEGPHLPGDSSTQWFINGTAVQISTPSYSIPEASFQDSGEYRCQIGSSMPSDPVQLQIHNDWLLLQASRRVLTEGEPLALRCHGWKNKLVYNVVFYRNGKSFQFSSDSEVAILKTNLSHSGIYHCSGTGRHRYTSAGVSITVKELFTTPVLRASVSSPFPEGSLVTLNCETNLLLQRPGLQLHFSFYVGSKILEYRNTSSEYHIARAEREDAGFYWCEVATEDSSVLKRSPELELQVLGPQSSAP

T11: human FcγRIIc (CD32C) (human, UniProt P31995)
T11 chain: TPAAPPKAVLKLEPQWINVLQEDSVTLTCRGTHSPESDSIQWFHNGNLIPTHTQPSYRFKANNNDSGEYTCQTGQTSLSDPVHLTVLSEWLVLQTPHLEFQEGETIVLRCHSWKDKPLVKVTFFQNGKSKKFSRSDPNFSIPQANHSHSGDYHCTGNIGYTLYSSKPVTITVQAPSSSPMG

T12: human FcγRIIb (CD32B) (human, UniProt P31994)
T12 chain: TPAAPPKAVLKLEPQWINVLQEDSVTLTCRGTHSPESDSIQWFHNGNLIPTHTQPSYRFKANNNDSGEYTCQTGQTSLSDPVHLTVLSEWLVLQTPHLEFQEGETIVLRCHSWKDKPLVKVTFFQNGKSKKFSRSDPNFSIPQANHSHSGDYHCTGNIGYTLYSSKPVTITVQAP


Columns and labels:
[1] = molecular target: T1, human FcγRI (CD64); assay: SPR
[2] = molecular target: T2, human FcγRIIIb (NA1) CD16B; assay: SPR
[3] = molecular target: T3, murine FcγRIII; assay: SPR
[4] = molecular target: T4, human FcγRIIa (CD32A); assay: SPR
[5] = molecular target: T5, murine FcγRIV (CD16-2); assay: SPR
[6] = molecular target: T6, murine FcγRIIb; assay: SPR
[7] = molecular target: T7, cynomolgus FcγRIIa (CD32A); assay: SPR
[8] = molecular target: T8, murine FcRn; assay: SPR, pH 6.0
[9] = molecular target: T9, cynomolgus FcRn; assay: SPR, pH 6.0
[10] = molecular target: human FcRn (human, UniProt P55899); assay: SPR, pH 6.0
[11] = molecular target: T10, murine FcγRI; assay: SPR
[12] = molecular target: T11, human FcγRIIc (CD32C); assay: SPR
[13] = molecular target: T12, human FcγRIIb (CD32B); assay: SPR
[14] = molecular target: EGFRvIII (CHO cells) (human); assay: FACS, CHO cells 37C

Row | binding result [1] | binding result [2] | binding result [3] | binding result [4] | binding result [5] | binding result [6] | binding result [7] | Kd [8] | Kd [9] | Kd [10] | binding result [11] | binding result [12] | binding result [13] | Kd [14] | Binder
1 | no binding | no binding | no binding | no binding | no binding | no binding | no binding | 180 nM | 842 nM | 430 nM | no binding | no binding | no binding | – | scFv-IgAb_02 (full) (antibody) chain 1: QVQLVQSGAEVKKPGESLKVSCKASGYTFTSYYMHWVRQAPGQGLEWMGIINPSGGSTSYAQKFQGRVTMTRDTSTSTVYMELSSLRSEDTAVYYCARGSAYYYDFADYWGQGTLVTVSSASTKGPSVFPLAPSSKSTSGGTAALGCLVKDYFPEPVTVSWNSGALTSGVHTFPAVLQSSGLYSLSSVVTVPSSSLGTQTYICNVNHKPSNTKVDKKVEPKSCDKTHTCPPCPAPEFEGGPSVFLFPPKPKDTLMISRTPEVTCVVVAVSHEDPEVKFNWYVDGVEVHNAKTKPREEQYNSTYRVVSVLTVLHQDWLNGKEYKCKVSNKALPAPIEKTISKAKGQPREPQVYTLPPSREEMTKNQVSLTCLVKGFYPSDIAVEWESNGQPENNYKTTPPVLDSDGSFFLYSKLTVDKSRWQQGNVFSCSVMHEALHNHYTQKSLSLSPGGGGGSGGGGSQVQLQESGPGLVKPSETLSLTCTVSGGSVSSGSYYWSWIRQPPGKGLEWIGYIYYSGSTNYNPSLKSRVTISVDTSKNQFSLKLSSVTAADTAVYYCARNPISIPAFDIWGQGTMVTVSSGGSGGSGGSGGSGGSGGSQPVLTQPPSVSVAPGKTARITCGGNNIGSKSVHWYQQKPGQAPVLVIYYDSDRPSGIPERFSGSNSGNTATLTISRVEAGDEADYYCQVWDTSSDHVLFGGGTKLTVL chain 2: SYVLTQPSSVSVAPGQTATISCGGHNIGSKNVHWYQQRPGQSPVLVIYQDNKRPSGIPERFSGSNSGNTATLTISGTQAMDEADYYCQVWDNYSVLFGGGTKLTVLGQPKAAPSVTLFPPSSEELQANKATLVCLISDFYPGAVTVAWKADSSPVKAGVETTTPSKQSNNKYAASSYLSLTPEQWKSHRSYSCQVTHEGSTVEKTVAPTECS
2 | – | – | – | – | – | – | – | – | – | – | – | – | – | 0.5 nM | Tandem diabody EGFR arm (antibody, V domains shown) VH: QVQLQESGPGLVKPSETLSLTCTVSGGSVSSGSYYWSWIRQPPGKGLEWIGYIYYSGSTNYNPSLKSRVTISVDTSKNQFSLKLSSVTAADTAVYYCARNPISIPAFDIWGQGTMVTVSS VL: QPVLTQPPSVSVAPGKTARITCGGNNIGSKSVHWYQQKPGQAPVLVIYYDSDRPSGIPERFSGSNSGNTATLTISRVEAGDEADYYCQVWDTSSDHVLFGGGTKLTVL
